Changes are numbered by the printed parent chain.
T1: human CD30 expressed on the cell surface (human, UniProt P28908 19-595)
T1 chain: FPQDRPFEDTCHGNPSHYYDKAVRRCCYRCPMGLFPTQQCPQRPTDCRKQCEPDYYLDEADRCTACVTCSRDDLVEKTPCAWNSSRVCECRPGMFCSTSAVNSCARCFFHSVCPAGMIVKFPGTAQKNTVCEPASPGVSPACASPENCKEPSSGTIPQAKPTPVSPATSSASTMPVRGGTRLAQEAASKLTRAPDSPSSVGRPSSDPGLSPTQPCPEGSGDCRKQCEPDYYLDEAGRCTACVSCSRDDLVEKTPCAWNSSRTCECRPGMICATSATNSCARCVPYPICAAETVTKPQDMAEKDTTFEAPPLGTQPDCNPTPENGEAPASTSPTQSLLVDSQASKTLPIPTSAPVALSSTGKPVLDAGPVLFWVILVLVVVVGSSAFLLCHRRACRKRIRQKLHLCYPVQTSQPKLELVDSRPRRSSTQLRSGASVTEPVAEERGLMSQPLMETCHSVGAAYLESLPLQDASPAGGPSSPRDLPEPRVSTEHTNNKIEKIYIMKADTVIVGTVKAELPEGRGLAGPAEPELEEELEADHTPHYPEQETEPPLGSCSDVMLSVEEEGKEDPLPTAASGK

B1: 12B1 (antibody, V domains shown)
VH: EVKLEESGTELVKPGASVKLSCKASGYTFTSYWMHWVKQRPGQGLEWIGNINPTNGGTNYNEKFKSKATLTVDKSSRTAYMQLSSLTSGDSAVYYCARRDFITTSGFAYWGQGTLVTVSA
VL: DIVMTQTTASLSTSVGETVTITCRASGNLHSYLTWYQQKQGKSPQLLVYNAKTLADGVPSRFSGSGSGTQYSLKIDSLQPEDFGSYYCQHFWTTPFTFGSGTKLEIK
B2: 15B8 (antibody, V domains shown)
VH: QVQLEQSGTELVKPGASVKLSCKASGYTFTSYWMHWVKQRPGQGLEWIGNINPSNGGTNYNEKFKSKATLTVDKSSSTAYMQLSSLTSEDSAIYYCARRNNYYASSPFAYWGQGTLVSVSA
VL: B1 VL with T8P, T13A, L29I, S31N, T34A, D76N, T93S
B3: 8D10 (antibody, V domains shown)
VH: QVQLQESGTELVKPGASVKLSCKASGYTFTSYWMHWMKQRPGQGLEWIGNINPSNGGTNYNEKFKNKATLTVDKSSSTAYMQLSSLTSEDSAVYYCARRDYYYGSSYGFDVWGTGTTVTVSS
VL: DIVMTQSPASQSASLGESVTITCLASQTIGTWLAWYQQKPGKSPQFLIYAATSLADGVPSRFSGSGSGTKFSFKISSLQAEDFVSYYCQQLYSTPFTFGGGTKLEIK
B4: 13H1 (antibody, V domains shown)
VH: QVQLQQSGTELVKPGASVKLSCKASGHTFTSYWMHWVKQRPGQGLEWIGNINPSNGGTNYNEKFKSKATLTVDKSSSTAYMQLSSLTSEDSAVYYCARRGYYGSSSYWSFDVWGTGTTVTVSS
VL: DIVMTQTPKSMSMSVGERVTLSCKASENVGTYVSWYQQKPEQSPKVLIYGASNRFTGVPDRFTGSGSATDFTLTISSVQTEDLADYHCGQSYSYPLTFGAGTKLELK
B5: 10C2 (antibody, V domains shown)
VH: QVQLEQSGPVLVKPGASVKMSCKASGYTFTDYYMNWVKQSHGKSLEWIGVINPYNGGTSYNQKFKGKATLTVDKSSSTACMELNCLTSEDSAVYYCTLGAYWGQGTSVTVSS
VL: not shown

Target: T1, human CD30 expressed on the cell surface
Test: SPR; CD30 immobilized on CM5 chip, antibody as analyte

| Ka | Binder |
| --- | --- |
| 5.02e+09 M⁻¹ | B1 |
| 1.02e+09 M⁻¹ | B2 |
| 1.69e+10 M⁻¹ | B3 |
| 6.7e+09 M⁻¹ | B4 |
| 1.65e+09 M⁻¹ | B5 |

Target: T1, human CD30 expressed on the cell surface
Test: SPR; antibody immobilized on Protein G chip, CD30 as analyte

| Kd | Binder |
| --- | --- |
| 1140 pM | B3 |
| 1760 pM | B5 |

Target: T1, human CD30 expressed on the cell surface
Test: SPR; CD30 immobilized on CM5 chip, antibody as analyte
Remark: another data set of the same source

| Kd | Binder |
| --- | --- |
| 199 pM | B1 |
| 978 pM | B2 |
| 59.2 pM | B3 |
| 149 pM | B4 |
| 607 pM | B5 |
